This assay concerns the target P4-FAM, N-terminally fluorescein-labelled P4 peptide (Streptococcus cristatus). Put plainly: MST.

Among the data in PMC7610489 are Kd values, retold here.

Take “RagAB complex purified from wild-type P. gingivalis W83, 8xHis-tag on the C terminus of RagB”: the Kd worked out at 2 µM.

As to “RagAB from P. gingivalis ATCC 33277 (complex)”, the dissociation constant Kd turned out to be 0.2 µM.

The term Kd denotes the constant that tells how readily two partners part at equilibrium.
